Measured values from article PMC4997814.
One block for each molecule: values may come before it.

Key:
Recombinant CYP26B1 = biological target: T1, Recombinant CYP26B1 (UniProt Q9NR63)
T1 sequence: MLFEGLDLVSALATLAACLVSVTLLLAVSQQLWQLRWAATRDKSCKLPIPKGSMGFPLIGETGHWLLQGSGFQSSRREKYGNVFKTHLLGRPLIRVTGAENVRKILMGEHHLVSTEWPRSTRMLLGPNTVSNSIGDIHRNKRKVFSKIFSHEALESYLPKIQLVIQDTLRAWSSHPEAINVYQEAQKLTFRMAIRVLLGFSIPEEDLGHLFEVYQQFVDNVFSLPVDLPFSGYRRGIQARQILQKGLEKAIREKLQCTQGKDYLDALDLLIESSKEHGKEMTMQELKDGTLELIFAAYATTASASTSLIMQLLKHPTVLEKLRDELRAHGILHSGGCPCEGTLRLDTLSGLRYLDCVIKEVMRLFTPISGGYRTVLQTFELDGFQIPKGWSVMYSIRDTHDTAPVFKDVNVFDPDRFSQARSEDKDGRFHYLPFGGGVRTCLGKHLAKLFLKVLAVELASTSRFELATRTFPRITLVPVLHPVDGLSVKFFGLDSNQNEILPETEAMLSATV

CYP3A4 Supersomes = CYP3A4 Supersomes (UniProt P08684)
Chain of UniProt P08684 (P08684 whole entry): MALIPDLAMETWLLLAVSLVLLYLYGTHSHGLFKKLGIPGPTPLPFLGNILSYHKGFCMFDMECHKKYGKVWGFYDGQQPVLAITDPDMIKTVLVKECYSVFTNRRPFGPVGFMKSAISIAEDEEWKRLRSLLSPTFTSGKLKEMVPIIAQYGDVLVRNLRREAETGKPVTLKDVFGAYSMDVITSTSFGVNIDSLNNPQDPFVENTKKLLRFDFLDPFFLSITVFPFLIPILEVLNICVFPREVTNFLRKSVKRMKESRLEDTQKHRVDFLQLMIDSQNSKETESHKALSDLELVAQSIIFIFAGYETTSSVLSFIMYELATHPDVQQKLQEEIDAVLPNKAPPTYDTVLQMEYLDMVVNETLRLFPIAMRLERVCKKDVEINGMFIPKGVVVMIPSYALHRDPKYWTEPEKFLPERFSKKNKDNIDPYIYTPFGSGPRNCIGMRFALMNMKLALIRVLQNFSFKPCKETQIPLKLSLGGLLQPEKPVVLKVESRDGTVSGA

CYP2C8 Supersomes = CYP2C8 Supersomes (UniProt P10632)
Chain of UniProt P10632 (P10632 whole entry): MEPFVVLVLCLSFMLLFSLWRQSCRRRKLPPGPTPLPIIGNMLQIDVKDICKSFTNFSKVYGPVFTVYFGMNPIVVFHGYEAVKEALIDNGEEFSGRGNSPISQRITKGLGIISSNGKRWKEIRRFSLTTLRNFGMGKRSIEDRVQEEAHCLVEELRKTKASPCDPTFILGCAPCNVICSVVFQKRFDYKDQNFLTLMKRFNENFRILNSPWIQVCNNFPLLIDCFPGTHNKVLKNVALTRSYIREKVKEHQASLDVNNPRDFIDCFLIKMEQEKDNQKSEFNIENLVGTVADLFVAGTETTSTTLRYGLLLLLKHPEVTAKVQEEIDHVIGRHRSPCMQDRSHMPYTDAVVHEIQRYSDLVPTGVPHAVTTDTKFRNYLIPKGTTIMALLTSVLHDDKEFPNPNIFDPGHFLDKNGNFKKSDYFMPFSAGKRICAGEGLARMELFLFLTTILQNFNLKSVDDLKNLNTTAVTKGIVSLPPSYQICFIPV

apparent Km of 4-OH-RA formation by CYP26B1 with holo-CRABP-I as substrate (Recombinant CYP26B1): 0.0217 µM | decrease of 4-OH-RA formation by CYP3A4 with 1 uM holo-CRABP-I against free atRA (CYP3A4 Supersomes): 98% | decrease of 4-OH-RA formation by CYP2C8 with 1 uM holo-CRABP-I against free atRA (CYP2C8 Supersomes): 98%
Molecule: Cellular retinoic acid binding protein I (CRABP-I) (from UniProt P29762 1-137) (natural protein)

apparent Km of 4-OH-RA formation by CYP26B1 with holo-CRABP-II as substrate (Recombinant CYP26B1): 0.0243 µM
B1: Cellular retinoic acid binding protein II (CRABP-II) (natural protein)
chain: MPNFSGNWKIIRSENFEELLKVLGVNVMLRKIAVAAASKPAVEIKQEGDTFYIKTSTTVRTTEINFKVGEEFEEQTVDGRPCKSLVKWESENKMVCEQKLLKGEGPKTSWTRELTNDGELILTMTADDVVCTRVYVRE
